{"source": "the supplement of paper PMC10567573", "parents": {"B1": {"name": "ZNF8 (parent)", "chain": "RTHTGEKPYTCSVCGKSFSRTTCL"}}, "data": [{"variants_of": "B1", "test": "protein stability index of a GFP-peptide fusion (GPS, HEK-293T) (PSI 1-6); higher = more stable", "conditions": "c terminus: a fixed tail appended", "values": [{"variant": "RTHTGEKPYICSVCGKSFSRTTCL", "protein stability index": 2.65}, {"variant": "RTHTGEKPYRCSVCGKSFSRTTCL", "protein stability index": 2.51}, {"variant": "RTHTGEKPYLCSVCGKSFSRTTCL", "protein stability index": 2.05}, {"variant": "RTHTGEKPYPCSVCGKSFSRTTCL", "protein stability index": 2.27}, {"variant": "RTHTGEKPYMCSVCGKSFSRTTCL", "protein stability index": 2.19}, {"variant": "RTHTGEKPYVCSVCGKSFSRTTCL", "protein stability index": 2.72}, {"variant": "RTHTGEKPYGCSVCGKSFSRTTCL", "protein stability index": 2.21}, {"variant": "RTHTGEKPYSCSVCGKSFSRTTCL", "protein stability index": 2.36}, {"variant": "RTHTGEKPYACSVCGKSFSRTTCL", "protein stability index": 2.06}, {"variant": "RTHTGEKPYWCSVCGKSFSRTTCL", "protein stability index": 1.75}, {"variant": "RTHTGEKPYHCSVCGKSFSRTTCL", "protein stability index": 2.75}, {"variant": "RTHTGEKPYDCSVCGKSFSRTTCL", "protein stability index": 2.43}, {"variant": "RTHTGEKPYFCSVCGKSFSRTTCL", "protein stability index": 1.89}, {"variant": "RTHTGEKPYECSVCGKSFSRTTCL", "protein stability index": 2.39}, {"variant": "RTHTGEKPYKCSVCGKSFSRTTCL", "protein stability index": 2.15}, {"variant": "RTHTGEKPYCCSVCGKSFSRTTCL", "protein stability index": 2.83}, {"variant": "RTHTGEKPYNCSVCGKSFSRTTCL", "protein stability index": 2.2}, {"variant": "RTHTGEKPYYCSVCGKSFSRTTCL", "protein stability index": 1.98}, {"variant": "RTHTGEKPYQCSVCGKSFSRTTCL", "protein stability index": 2.6}, {"variant": "RTHTGEKPYTQSVCGKSFSRTTCL", "protein stability index": 3.18}, {"variant": "RTHTGEKPYTSSVCGKSFSRTTCL", "protein stability index": 2.52}, {"variant": "RTHTGEKPYTRSVCGKSFSRTTCL", "protein stability index": 2.39}, {"variant": "RTHTGEKPYTFSVCGKSFSRTTCL", "protein stability index": 2.23}, {"variant": "RTHTGEKPYTLSVCGKSFSRTTCL", "protein stability index": 2.43}, {"variant": "RTHTGEKPYTTSVCGKSFSRTTCL", "protein stability index": 2.39}, {"variant": "RTHTGEKPYTMSVCGKSFSRTTCL", "protein stability index": 3.35}, {"variant": "RTHTGEKPYTESVCGKSFSRTTCL", "protein stability index": 2.48}, {"variant": "RTHTGEKPYTISVCGKSFSRTTCL", "protein stability index": 2.01}, {"variant": "RTHTGEKPYTYSVCGKSFSRTTCL", "protein stability index": 1.86}, {"variant": "RTHTGEKPYTDSVCGKSFSRTTCL", "protein stability index": 2.83}, {"variant": "RTHTGEKPYTVSVCGKSFSRTTCL", "protein stability index": 2.24}, {"variant": "RTHTGEKPYTHSVCGKSFSRTTCL", "protein stability index": 1.99}, {"variant": "RTHTGEKPYTKSVCGKSFSRTTCL", "protein stability index": 2.25}, {"variant": "RTHTGEKPYTGSVCGKSFSRTTCL", "protein stability index": 2.33}, {"variant": "RTHTGEKPYTWSVCGKSFSRTTCL", "protein stability index": 1.82}, {"variant": "RTHTGEKPYTASVCGKSFSRTTCL", "protein stability index": 2.88}, {"variant": "RTHTGEKPYTNSVCGKSFSRTTCL", "protein stability index": 2.79}, {"variant": "RTHTGEKPYTPSVCGKSFSRTTCL", "protein stability index": 2.56}, {"variant": "RTHTGEKPYTCSVCGKSFDRTTCL", "protein stability index": 2.79}, {"variant": "RTHTGEKPYTCSVCGKSFCRTTCL", "protein stability index": 3.7}, {"variant": "RTHTGEKPYTCSVCGKSFIRTTCL", "protein stability index": 2.07}, {"variant": "RTHTGEKPYTCSVCGKSFKRTTCL", "protein stability index": 2.45}, {"variant": "RTHTGEKPYTCSVCGKSFGRTTCL", "protein stability index": 2.35}, {"variant": "RTHTGEKPYTCSVCGKSFLRTTCL", "protein stability index": 2.51}, {"variant": "RTHTGEKPYTCSVCGKSFERTTCL", "protein stability index": 2.67}, {"variant": "RTHTGEKPYTCSVCGKSFNRTTCL", "protein stability index": 2.67}, {"variant": "RTHTGEKPYTCSVCGKSFARTTCL", "protein stability index": 1.36}, {"variant": "RTHTGEKPYTCSVCGKSFMRTTCL", "protein stability index": 2.5}, {"variant": "RTHTGEKPYTCSVCGKSFHRTTCL", "protein stability index": 2.59}, {"variant": "RTHTGEKPYTCSVCGKSFFRTTCL", "protein stability index": 2.64}, {"variant": "RTHTGEKPYTCSVCGESFSRTTCL", "protein stability index": 2.61}, {"variant": "RTHTGEKPYTCSVCGISFSRTTCL", "protein stability index": 1.74}, {"variant": "RTHTGEKPYTCSVCGRSFSRTTCL", "protein stability index": 2.45}, {"variant": "RTHTGEKPYTCSVCGYSFSRTTCL", "protein stability index": 1.87}, {"variant": "RTHTGEKPYTCSVCGVSFSRTTCL", "protein stability index": 1.96}, {"variant": "RTHTGEKPYTCSVCGPSFSRTTCL", "protein stability index": 1.81}, {"variant": "RTHTGEKPYTCSVCGWSFSRTTCL", "protein stability index": 1.84}, {"variant": "RTHTGEKPYTCSVCGMSFSRTTCL", "protein stability index": 2.2}, {"variant": "RTHTGEKPYTCSVCGNSFSRTTCL", "protein stability index": 2.58}, {"variant": "RTHTGEKPYTCSVCGTSFSRTTCL", "protein stability index": 1.94}, {"variant": "RTHTGEKPYTCSVCGASFSRTTCL", "protein stability index": 1.85}, {"variant": "RTHTGEKPYTCSVCGLSFSRTTCL", "protein stability index": 2.09}, {"variant": "RTHTGEKPYTCSVCGGSFSRTTCL", "protein stability index": 2.41}, {"variant": "RTHTGEKPYTCSVCGHSFSRTTCL", "protein stability index": 1.99}, {"variant": "RTHTGEKPYTCSVCGSSFSRTTCL", "protein stability index": 1.75}, {"variant": "RTHTGEKPYTCSVCGFSFSRTTCL", "protein stability index": 1.77}, {"variant": "RTHTGEKPYTCSVCGCSFSRTTCL", "protein stability index": 2.16}, {"variant": "RTHTGEKPYTCSVCGQSFSRTTCL", "protein stability index": 2.6}, {"variant": "RTHTGEKPYTCSVCGDSFSRTTCL", "protein stability index": 2.08}, {"variant": "RTHTGEKPYTCSNCGKSFSRTTCL", "protein stability index": 2.26}, {"variant": "RTHTGEKPYTCSQCGKSFSRTTCL", "protein stability index": 1.28}, {"variant": "RTHTGEKPYTCSPCGKSFSRTTCL", "protein stability index": 1.97}, {"variant": "RTHTGEKPYTCSLCGKSFSRTTCL", "protein stability index": 2.23}, {"variant": "RTHTGEKPYTCSCCGKSFSRTTCL", "protein stability index": 3.54}, {"variant": "RTHTGEKPYTCSMCGKSFSRTTCL", "protein stability index": 2.14}, {"variant": "RTHTGEKPYTCSGCGKSFSRTTCL", "protein stability index": 2}, {"variant": "RTHTGEKPYTCSECGKSFSRTTCL", "protein stability index": 2.47}, {"variant": "RTHTGEKPYTCSYCGKSFSRTTCL", "protein stability index": 2.43}, {"variant": "RTHTGEKPYTCSHCGKSFSRTTCL", "protein stability index": 2.61}, {"variant": "RTHTGEKPYTCSDCGKSFSRTTCL", "protein stability index": 2.46}, {"variant": "RTHTGEKPYTCSFCGKSFSRTTCL", "protein stability index": 2.48}, {"variant": "RTHTGEKPYTCSACGKSFSRTTCL", "protein stability index": 2.26}, {"variant": "RTHTGEKPYTCSRCGKSFSRTTCL", "protein stability index": 1.99}, {"variant": "RTHTGEKPYTCSICGKSFSRTTCL", "protein stability index": 2.09}, {"variant": "RTHTGEKPYTCSSCGKSFSRTTCL", "protein stability index": 2.56}, {"variant": "RTHTGEKPYTCSTCGKSFSRTTCL", "protein stability index": 1.89}, {"variant": "RTHTGEKPYTCSWCGKSFSRTTCL", "protein stability index": 1.65}, {"variant": "RTHTGEKPYTCSKCGKSFSRTTCL", "protein stability index": 2.61}, {"variant": "RTHTGEKPSTCSVCGKSFSRTTCL", "protein stability index": 2.62}, {"variant": "RTHTGEKPTTCSVCGKSFSRTTCL", "protein stability index": 2.59}, {"variant": "RTHTGEKPRTCSVCGKSFSRTTCL", "protein stability index": 2.29}, {"variant": "RTHTGEKPQTCSVCGKSFSRTTCL", "protein stability index": 2.31}, {"variant": "RTHTGEKPVTCSVCGKSFSRTTCL", "protein stability index": 2.65}, {"variant": "RTHTGEKPWTCSVCGKSFSRTTCL", "protein stability index": 2.42}]}]}
